Among the data in patent publication US20110076234A1 (MOLMED, published 2011) are EC50 values, retold here.

One may read the EC50 as the concentration that produces a half-maximal response. Read a low EC50 as greater potency.

*1 amine or outer side, *2 acyl side, *3 side chain or, on linkers, in order; H or OH if unused. Where no end group is shown, it is not given here. [ ]: non-standard residue; d: D form. βAsp = O=C(O)[C@H](CC(=O)[*:2])N[*:1]

For this assay, the target named is T1, Human αvβ3 integrin (purified) (human, UniProt P06756 31-1048; P05106 27-788).
T1 construct: Bought purified integrin, adsorbed on microtiter plates (0.5-2 µg/ml in DPBS with Ca2+ and Mg2+); also called avβ3; vitronectin receptor
The assay can be described thus: competitive ELISA on αvβ3-coated plates with biotinylated NGR-TNF as labelled ligand (legend of FIG. 7). On the technique in general: ELISA stands for enzyme-linked immunosorbent assay.

T1 sequence (P06756 31-1048, form in doubt, chain 1 of 2): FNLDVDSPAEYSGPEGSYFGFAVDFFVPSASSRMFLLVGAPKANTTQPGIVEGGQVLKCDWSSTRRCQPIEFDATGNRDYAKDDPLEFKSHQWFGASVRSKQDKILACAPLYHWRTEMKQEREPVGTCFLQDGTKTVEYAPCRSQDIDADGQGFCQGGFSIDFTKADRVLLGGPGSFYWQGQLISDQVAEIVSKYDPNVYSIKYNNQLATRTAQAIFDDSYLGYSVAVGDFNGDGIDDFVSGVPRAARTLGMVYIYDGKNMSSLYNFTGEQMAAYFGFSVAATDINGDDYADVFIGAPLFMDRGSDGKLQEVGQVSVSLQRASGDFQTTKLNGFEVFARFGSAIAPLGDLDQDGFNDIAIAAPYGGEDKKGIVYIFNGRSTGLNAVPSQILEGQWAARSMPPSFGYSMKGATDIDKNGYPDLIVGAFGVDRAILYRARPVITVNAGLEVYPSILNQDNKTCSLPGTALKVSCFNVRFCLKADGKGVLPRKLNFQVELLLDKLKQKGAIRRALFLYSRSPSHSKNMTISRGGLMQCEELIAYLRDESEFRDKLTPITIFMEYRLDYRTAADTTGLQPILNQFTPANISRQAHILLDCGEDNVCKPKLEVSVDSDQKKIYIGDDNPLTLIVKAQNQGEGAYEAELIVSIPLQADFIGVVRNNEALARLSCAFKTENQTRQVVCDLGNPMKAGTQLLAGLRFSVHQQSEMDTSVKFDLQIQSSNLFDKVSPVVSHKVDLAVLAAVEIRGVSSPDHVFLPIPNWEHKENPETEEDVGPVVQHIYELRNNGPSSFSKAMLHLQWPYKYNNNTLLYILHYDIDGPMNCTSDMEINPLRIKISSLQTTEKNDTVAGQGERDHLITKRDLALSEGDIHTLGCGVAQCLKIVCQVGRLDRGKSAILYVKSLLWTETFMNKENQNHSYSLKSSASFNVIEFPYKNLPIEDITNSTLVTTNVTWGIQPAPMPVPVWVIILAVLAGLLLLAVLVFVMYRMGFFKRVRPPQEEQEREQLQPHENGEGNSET
T1 sequence (P05106 27-788, form in doubt, chain 2 of 2): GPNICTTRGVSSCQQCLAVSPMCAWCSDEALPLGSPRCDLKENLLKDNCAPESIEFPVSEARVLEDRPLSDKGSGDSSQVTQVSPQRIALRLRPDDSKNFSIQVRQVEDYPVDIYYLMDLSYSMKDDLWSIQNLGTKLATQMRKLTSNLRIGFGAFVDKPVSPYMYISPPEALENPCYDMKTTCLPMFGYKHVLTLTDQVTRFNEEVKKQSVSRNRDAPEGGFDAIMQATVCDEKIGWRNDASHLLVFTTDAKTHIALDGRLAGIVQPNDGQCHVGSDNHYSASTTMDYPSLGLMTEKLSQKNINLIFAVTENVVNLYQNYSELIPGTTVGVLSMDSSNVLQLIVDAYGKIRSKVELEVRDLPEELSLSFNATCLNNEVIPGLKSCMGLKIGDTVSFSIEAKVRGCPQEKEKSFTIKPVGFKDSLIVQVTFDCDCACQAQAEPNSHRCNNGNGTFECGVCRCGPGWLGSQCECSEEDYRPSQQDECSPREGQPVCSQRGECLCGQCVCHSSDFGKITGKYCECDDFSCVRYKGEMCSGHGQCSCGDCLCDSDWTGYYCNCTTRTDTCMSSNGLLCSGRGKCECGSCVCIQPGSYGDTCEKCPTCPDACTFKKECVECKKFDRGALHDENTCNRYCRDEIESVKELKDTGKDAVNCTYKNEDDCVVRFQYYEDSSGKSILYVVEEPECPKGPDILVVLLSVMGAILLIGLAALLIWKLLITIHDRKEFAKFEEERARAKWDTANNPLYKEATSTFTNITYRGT

B1: D-DGR-pep (sequence of NGR-pep with D-D in place of N) (peptide)
peptide: C[dD]GRCGVRY
modifications: cysteine pairing not given here
B1 had an EC50 of 100 nM.

B2: isoDGR-pep (sequence of NGR-pep with L-isoD in place of N) (peptide)
peptide: C[βAsp]GRCGVRY
modifications: cysteine pairing not given here
Consider B2, for which the midpoint of the response, the EC50, lay at 100 nM. This lies in the sub-micromolar range.
